Consider 2 molecules from patent US20060013804A1, “Modulation of stem cell differentiation by modulation of caspase-3 activity” (Ottawa Health Research Institute, priority 2002, published 2006).

Entries after “also recorded” stand apart in the source; their conditions may differ.

For one data set, the system named is neurospheres. The experiment in a line: Cytotoxicity observed in neurosphere cultures. The note with it: neurosphere experiments. It is filed as cell-based, mouse. The source says: Under growth conditions, neurospheres readily stained for nestin, an intermediate protein highly expressed in early neuronal progenitors (Lendahl et al., Cell 60, 585-595). […] Subsequently, we compared neural differentiation without caspase 3 activity. […] Increased expression of GFAP, MBP are characteristic with the early formation of astrocytes and oligodendrocytes respectively (Gage, F. H. (2000) Science 287, 1433-1438).

In another data set the test system is Histone H1. The experiment in a line: Histone H1 targeted kinase assay of MST1 constructs immunoprecipitated from transfected COS1 cells. The format is biochemical. As to conditions: transiently transfected COS1 cells, Histone H1 substrate. The method, then: (§1) Transfection Assays. The complete open reading frame of the human MST1, [Genbank Accession No. gi|1117790] obtained from a clone bank collection (Stratagene) was inserted into the expression vector pcDNA3.1 Myc/His (Invitrogen). A constitutively active MST1 (MST1-act) was prepared as previously described (Megeney, L. A., et al., (1996) Genes Dev 10, 1173-1183). The integrity of both MST1 and MST1-act were confirmed by sequencing. The kinase activity of these protein products were verified by transient transfection into COS1 cells followed by immunoprecipitation and kinase analysis using Histone-H1 as the target substrate (see below). Transfections with MST1 and MST1-act into both COS1 and primary myoblasts were performed using Lipofectamine Plus (Gibco) as directed in the manufacturer's instructions.
Co-immunoprecipitation and kinase analyses. Immunoprecipitation was performed using 150-200 μg of total protein, incubated in modified-RIPA buffer at 4° C. for 16 h containing the respective antibody. Samples were mixed for 1 h with 25 μl of a 50% Protein G (Pharmacia). For co-immunoprecipitation, immunoprecipitates were washed in modified-RIPA buffer, boiled in 1× Lamelli buffer, separated by SDS-PAGE and Western blotted for immunoblot analyses. […] Following SDS-PAGE, gels were dried and phospho-incorporation was analyzed by autoradiography. […]

The subject of data set [1] is wildtype primary myoblasts. The experiment in a line: Transfection of MST1-act into wildtype primary myoblasts. It is filed as cell-based, mouse. As for the experimental part:
(§2) Myoblast culture. C2C12 cell (mouse skeletal muscle myoblast) cultures were grown and maintained in DMEM containing 10% FBS with 50 units/ml penicillin and 50 μg/ml streptomycin (Gibco). Differentiation was induced by incubating cultures in DMEM containing only a low serum concentration (2% horse serum). Caspase activity was measured using a Caspase-3 and Caspase-8 Fluorometric Assay Kit (Pharmingen). […] Control cells were treated with an equivalent amount of vehicle (DMSO). Primary myoblast cells were derived from skeletal muscles of the hind- and fore-limbs from 1-2 day old C57BL/6 wild-type, caspase-3 heterozygous and caspase-3 null mice (Frasch, S. C., et al., (1998) J. Biol. Chem. 273, 8389-8397; Kuida, K., et al., (1996) Nature 384, 368-372) (n=5 for each genotype) as described (Cregan, S. P. et al., (1999) J. Neuro. 19, 7860-7869.). To induce differentiation, primary myoblast cultures were incubated in DMEM containing 5% horse serum.
Transfection Assays. The complete open reading frame of the human MST1, [Genbank Accession No. gi|1117790] obtained from a clone bank collection (Stratagene) was inserted into the expression vector pcDNA3.1 Myc/His (Invitrogen). A constitutively active MST1 (MST1-act) was prepared as previously described (Megeney, L. A., et al., (1996) Genes Dev 10, 1173-1183). The integrity of both MST1 and MST1-act were confirmed by sequencing. […]

In data set [2] the test system is caspase-3-/- primary myoblasts. In words: Transfection of MST1 constructs into caspase-3-/- primary myoblasts (rescue of myogenesis). The format is cell-based, mouse. As for the experimental part: as §2, §1
To delineate the effect of MST1 on myogenesis, wild-type MST1, an activated MST1 (aa 1-330, MST1-act) or plasmid alone was transiently transfected into primary myoblasts derived from caspase-3^−/− mice. The activity of these constructs was verified by Histone H1 targeted kinase analysis of MST1 from transiently transfected COS1 cells (FIG. 5A).

Consider `CC(=O)N[C@@H](CC(=O)O)C(=O)N[C@@H](CCC(=O)O)C(=O)N[C@H](C(=O)N[C@H](C=O)CC(=O)O)C(C)C` [Ac-DEVD-CHO], for which, in the data set on neurospheres, the cytotoxicity result is recorded as “high levels of cytotoxicity”.

B1: MST1-act: constitutively active MST1 (aa 1-330) expressed from pcDNA3.1 Myc/His by transfection (protein, UniProt Q13043 1-330, looked up, fragment)
chain: METVQLRNPPRRQLKKLDEDSLTKQPEEVFDVLEKLGEGSYGSVYKAIHKETGQIVAIKQVPVESDLQEIIKEISIMQQCDSPHVVKYYGSYFKNTDLWIVMEYCGAGSVSDIIRLRNKTLTEDEIATILQSTLKGLEYLHFMRKIHRDIKAGNILLNTEGHAKLADFGVAGQLTDTMAKRNTVIGTPFWMAPEVIQEIGYNCVADIWSLGITAIEMAEGKPPYADIHPMRAIFMIPTNPPPTFRKPELWSDNFTDFVKQCLVKSPEQRATATQLLQHPFVRSAKGVSILRDLINEAMDVKLKRQESQQREVDQDDEENSEEDEMDSGTM
modifications: Myc/His tag
For B1, the “kinase activity of construct” value with Histone H1 is “high level of kinase activity”. For the same molecule, the “myogenesis in wildtype myoblasts” value in data set [1] (2 days in differentiation media, vs untransfected wildtype) is recorded as “comparable to wildtype cultures after 4-5 days of differentiation; also recorded: accelerated myogenesis after 2 days”. Moreover, the “apoptosis on protracted differentiation” value in data set [1] (differentiation time course >4 days) is “enhanced apoptosis”. In data set [2] (caspase-3 knockout myoblasts containing construct), this molecule displayed an efficiency of differentiation above 85%. In data set [2] (transient transfection, primary caspase-3-/- myoblasts), the “myotube formation in caspase-3-/- myoblasts” value was “elongated and fused with neighbouring cells to form multinucleated myotubes; also recorded: differentiated to form fused, multinucleated myotubes”.
